According to patent WO2009150539A2 (dated 2009):
Values joined by “and” are separate entries in the source; they are usually repeats but may differ in a detail not shown here. Equal values may be shown once.

T1: AahII toxin of Androctonus australis hector (Androctonus australis hector, UniProt P01484 20-83)
T1 sequence: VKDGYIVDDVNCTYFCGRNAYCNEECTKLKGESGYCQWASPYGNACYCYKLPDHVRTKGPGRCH


Key:
[1] = target: AahI' toxin of Androctonus australis hector (Androctonus australis hector) (UniProt P01479); test: cell-based or functional assay
[2] = target: T1, AahII toxin of Androctonus australis …; test: cell-based or functional assay
[3] = target: T1, AahII toxin of Androctonus australis …; test: SPR (BIAcore), AahII immobilised on CM5 chip, Nb in mobile phase

Chain of AahI' toxin of Androctonus australis hector (Androctonus australis hector) (P01479 20-82): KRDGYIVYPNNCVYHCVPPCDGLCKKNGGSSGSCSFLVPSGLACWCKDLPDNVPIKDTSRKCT

| Binder | surviving mice; i.c.v.; 4 LD50 AahI'; ratio 1:2 (survivors of 4 mice) [1] | Kd [3] [nM] | koff [3] [s⁻¹] | kon [3] [M⁻¹ s⁻¹] | also measured |
| --- | --- | --- | --- | --- | --- |
| AahI'A2 (VHH) VHH: QVQLQESGGGSVQAGGSLRLSCAASGFPASSYCMAWFRQAPGKEREGLAAIYNGGRRYYPDSLKGRFTIEDKAENTIYLEMNSLKPEDTATYYCAARSNQCWYATLQQSWYPYWGQGTQVTVSS | 0 | – | – | – | – |
| NbAahII05 (VHH, also called cluster G) VHH: QVQLQESGGGSVQAGGSLRLSCAASGYTCTKFNMGWYRQAPGKQREFVASIRRDSTIYYGDSVKGRFTISQDNAKNMVYLQMTSLKPEDSAMYYCSTRCLTSSVPYWGQGTQVTVSS | – | 0.67 | 0.00186 | 2.77e+06 | Survivors/Injected mice; i.c.v.; AahII:Nb 1:2; 2 LD50/mouse; 24 ng Nb/mouse [2]: 4 survivors of 4 mice; Survivors/Injected mice; i.c.v.; AahII:Nb 1:2; 3 LD50/mouse; 36 ng Nb/mouse [2]: 4 survivors of 4 mice; Survivors/Injected mice; i.c.v.; AahII:Nb 1:2; 4 LD50/mouse; 48 ng Nb/mouse [2]: 1 survivors of 4 mice; Survivors/Injected mice; i.c.v.; AahII:Nb 1:4; 3 LD50/mouse; 72 ng Nb/mouse [2]: 4 survivors of 4 mice |
| AahI'F12 (VHH) VHH: QVQLQESGGGSVQAGGSLRLSCVGPGISYVYNRVGWFRQAPGKESEVVAAFYTSNTSALYYAAQVKGRFTISQGNAKNTVYLQMNNLKPEDSGKYYCATANGGLLSDARGYRHYGQGTQVTVSS | 4 | – | – | – | surviving mice; i.c.v.; 20 LD50 AahI'; ratio 1:2 (survivors of 4 mice) [1]: 4; surviving mice; i.c.v.; 23 LD50 AahI'; ratio 1:2 (survivors of 4 mice) [1]: 4; surviving mice; i.c.v.; 26 LD50 AahI'; ratio 1:2 (survivors of 4 mice) [1]: 4; surviving mice; i.c.v.; 29 LD50 AahI'; ratio 1:2 (survivors of 4 mice) [1]: 4; surviving mice; i.c.v.; 33 LD50 AahI'; ratio 1:2 (survivors of 4 mice) [1]: 4; surviving mice; i.c.v.; 37 LD50 AahI'; ratio 1:2 (survivors of 4 mice) [1]: 4; surviving mice; i.c.v.; 47 LD50 AahI'; ratio 1:2 (survivors of 4 mice) [1]: 4; surviving mice; i.c.v.; 60 LD50 AahI'; ratio 1:2 (survivors of 4 mice) [1]: 4; surviving mice; i.c.v.; 70 LD50 AahI'; ratio 1:2 (survivors of 4 mice) [1]: 4; surviving mice; i.c.v.; 75 LD50 AahI'; ratio 1:2 (survivors of 4 mice) [1]: 4; surviving mice; i.c.v.; 80 LD50 AahI'; ratio 1:2 (survivors of 4 mice) [1]: 4; surviving mice; i.c.v.; 90 LD50 AahI'; ratio 1:2 (survivors of 4 mice) [1]: 4; surviving mice; i.c.v.; 95 LD50 AahI'; ratio 1:1 (survivors of 4 mice) [1]: 2; surviving mice; i.c.v.; 95 LD50 AahI'; ratio 1:2 (survivors of 4 mice) [1]: 4; surviving mice; i.c.v.; 100 LD50 AahI'; ratio 1:1 (survivors of 4 mice) [1]: 2; surviving mice; i.c.v.; 100 LD50 AahI'; ratio 1:2 (survivors of 4 mice) [1]: 4 |
| AahI'B2 (VHH) VHH: QVQLQESGGGSVQAGGSLRLSCVASEYSYRRNCMAWYRQAPGKEREGVARISTAYDITYYADSANGRFTISQDKAKKTVYLQMNSLKPEDSAMYYCSVSTGSDCYSMSLPRMDYWGKGTQVTVSS | 4 | – | – | – | – |
| NbAahII39 (VHH, also called cluster G) VHH: QVQLVESGGGSVQAGGSLRLSCAASGYTCTKFNMGWYRQAPGKERKMVATIRRDGTTYYADSVKGRFTISQDNAKNTVYLQMTSLKPEDSAMYYCSFRCVTPSLPYWGQGTQVTVSS | – | 0.16 | 0.00105 | 6.41e+06 | – |
| AahI'D10 (VHH) VHH: QVQLQESGGGSVQAGGSLRLSCAASVDTFSTTCMGWFRQTPGKEREGVAVIKTFYAGTVYADSVKGRFTISQDIAKNTVYLQMNSLNPEDTAMYYCAATGGPYNGRCPLASQPFRYWTQGTQVTVSS | 3 | – | – | – | – |
| AahI'A3 (VHH) VHH: QVQLQESGGGSVQAGGSLRLSCAASGFTFRSPYCMGWFRQAPGKEREAVAAIKTYYAGTVYADSMKGRFTITQDIAKNTVYLQMNSLKPEDTATYYCAATGGPYNGRCPLTSQPFPNWGQGTQVTVSS | 4 | – | – | – | – |
| NbAahII18 (VHH, also called NbAahlllδ; NbAahll l δ) VHH: QVQLQESGGGSVQAGGSLRLSCAASGDSYSNYYMAWFRQAPGKEREGVAHINRSGRITLYADSVKGRFTMSRDNAKNTVYLQMNSLRPEDTAIYYCAAGVRTHMPPLASYGFDYWGQGTQVTVSS | – | 0.18 | 0.0016 | 8.95e+06 | NC = (LD50 with Nb - LD50 without Nb)/Nb; i.c.v.; AahII:Nb 1:4 [2]: 27000 LD50/mg and 400 LD50/nmol; Survivors/Injected mice; i.c.v.; AahII:Nb 1:2; 3 LD50/mouse; 36 ng Nb/mouse [2]: 1 survivors of 4 mice; Survivors/Injected mice; i.c.v.; AahII:Nb 1:2; 4 LD50/mouse; 48 ng Nb/mouse [2]: 0 survivors of 4 mice; Survivors/Injected mice; i.c.v.; AahII:Nb 1:4; 2 LD50/mouse; 48 ng Nb/mouse [2]: 2 survivors of 4 mice; Survivors/Injected mice; i.c.v.; AahII:Nb 1:4; 3 LD50/mouse; 72 ng Nb/mouse [2]: 2 survivors of 4 mice |
| NbAahII08 (VHH, also called cluster F) VHH: DVQLVESGGGSVQAGGSLRLSCAASGDSYSNYYMAWFRQAPGKEREGVAHINRSGRITLYADSVKGRFTMSRDNAKNTVYLQMNSLKPEDTAIYYCAAGVRTHMPPLASYGFDYWGQGTQVTVSS | – | 0.12 | 0.00138 | 1.19e+07 | – |
| AahI'C13 (VHH) VHH: QVQLQESGGGSVQPGGSLRLSCAASGYIYSRYCMGWFRQAPGKEREGVAVISGYGTTHFADSAKGRFTISQDKAKNMVYLQMNSLRPEDTAIYYCAVRQWDCYSANWPQTHTYDYWGQGTQVTVSS | 2 | – | – | – | – |
| AahI'B23 (VHH) VHH: QVQLQESGGGSVQAGGSLRLSCAASGYQQTGYCMGWFRQAPGKEREGVAVIKTFYAGTVYADSVKGRFTISQDIAKNTVYLQMNSLQPEDTAMYYCAITGGPWNGRCPLTSQAFRYWGQGTQVTVSS | 0 | – | – | – | – |
| NbAahII36 (VHH, also called cluster C) VHH: QVQLVESGGGSVQAGGSLRLSCAASGYTFSNYRMGWFRQAPGKECELVSTILTDGSTNYADSVKGRFTISRDNAKNTVYLLMNNLKAEDTAVYYCAAGNSRKGYLRRCGGTDFGYWGQGTQVTVSS | – | 0.67 | 0.00137 | 2.04e+06 | Survivors/Injected mice; i.c.v.; AahII:Nb 1:2; 2 LD50/mouse; 24 ng Nb/mouse [2]: 1 survivors of 4 mice; Survivors/Injected mice; i.c.v.; AahII:Nb 1:2; 3 LD50/mouse; 36 ng Nb/mouse [2]: 0 survivors of 4 mice |
| NbAahII41 (VHH, also called cluster I) VHH: QVQLVESGGGSVQAGGSLRLSCAASGFDFSIYVMSWVRQAPGKGLEWISGIMPSGQTTYADAVKGRFTISRDNAKNTLYLQLNSLKTEDTAIYYCAKGVYTKYVGGARGQGTQVTVSS | – | 2.31 | 0.01 | 4.33e+06 | – |
| AahI'B1 (VHH) VHH: QVQLQESGGGSVQAGGSLRLSCTASKYTSAVGWFRQAPGKEREGVASIYGYTGSGSSGSTYYADSGKGRFTISRDSAKNMVYLQMNSLKPEDTAMYYCTAADRPRFRLLVEDDVVYWGQGTQVTVSS | 0 | – | – | – | – |
| AahI'A19 (VHH) VHH: QVQLQESGGGSVQAGGSLRLSCVASEYSECIGWFRQAPGKEREGVAAIEKVLGQRWRADSIHDRITISQDKAKNTVYLQMTSLKIDDTAMYYCAAKGRGCMSQPTTGYLSWGQGTQVTVSS | 4 | – | – | – | – |
| NbAahII20 (VHH, Purified from E. coli periplasm with His6; also called NbAahIKO (I); cluster I) VHH: QVQLQESGGGLVQPGGSLRLSCTASGFDFSRYVMSWVRQAPGKDFEWISGIMPLSSAGTTYADAVKGRFTISRDNAKNTLYLQLNNLKTEDTAIYYCAKGVYTTYIGGARGQGTQVTVSS | – | 0.26 | 0.00213 | 8.18e+06 | NC = (LD50 with Nb - LD50 without Nb)/Nb; i.c.v.; AahII:Nb 1:4 [2]: 27000 LD50/mg and 400 LD50/nmol; Survivors/Injected mice; i.c.v.; AahII:Nb 1:2; 2 LD50/mouse; 24 ng Nb/mouse [2]: 3 survivors of 4 mice; Survivors/Injected mice; i.c.v.; AahII:Nb 1:2; 4 LD50/mouse; 48 ng Nb/mouse [2]: 2 survivors of 4 mice; Survivors/Injected mice; i.c.v.; AahII:Nb 1:4; 3 LD50/mouse; 72 ng Nb/mouse [2]: 2 survivors of 4 mice |
| NbAahII17 (VHH, also called cluster D) VHH: DVQLVESGGGSVQAGGSLRLSCAASGVTLNNYCVGWFRQAPGKEREGVAAFKSGGSFTYYADSVKGRFTISKDNAKNTMYLQMNSLNSDDTAMYYCAVTRNSCLGLAKFRPSSYNYWGQGTQVTVSS | – | 0.61 | 0.00376 | 6.12e+06 | Survivors/Injected mice; i.c.v.; AahII:Nb 1:2; 2 LD50/mouse; 24 ng Nb/mouse [2]: 0 survivors of 4 mice |
| NbAahII12 (VHH, Purified from E. coli periplasm with His6; also called cluster I) VHH: QVQLVESGGGLVQPGGSLRLSCAASGFSFNIYAMSWVRQAPGKQFEWVSGIHPNGRSTYYTDSVKGRFTISRDNAKNTLYLQLDSLKTEDTAMYYCAKGVLTKYVGGARGQGTQVTVSS | – | 0.28 | 0.0016 | 5.63e+06 | NC = (LD50 with Nb - LD50 without Nb)/Nb; i.c.v.; AahII:Nb 1:4 [2]: 27000 LD50/mg and 400 LD50/nmol; Survivors/Injected mice; i.c.v.; AahII:Nb 1:4; 2 LD50/mouse; 48 ng Nb/mouse [2]: 3 survivors of 4 mice; Survivors/Injected mice; i.c.v.; AahII:Nb 1:4; 3 LD50/mouse; 72 ng Nb/mouse [2]: 2 survivors of 4 mice |
| NbAahII19 (VHH, Purified from E. coli periplasm with His6; also called cluster I) VHH: QVQLQESGGGLVQPGGSLRLSCAASGFSFNIYAMSWVRQAPGKQFEWVSGIHPDGRSTYYTDSVKGRFTISRDNAKNTLYLQLDSLKTEDTAMYYCAKGVLTKYVGSARGQGTQVTVSS | – | 2.39 | 0.013 | 5.46e+06 | Survivors/Injected mice; i.c.v.; AahII:Nb 1:4; 2 LD50/mouse; 48 ng Nb/mouse [2]: 4 survivors of 4 mice; Survivors/Injected mice; i.c.v.; AahII:Nb 1:4; 3 LD50/mouse; 72 ng Nb/mouse [2]: 4 survivors of 4 mice |
| AahI'D11 (VHH) VHH: QVQLQESGGGSVEAGGSLRLSCATSGFTFSRYAMYWFRQAPGMECEWVSTIHTNGDTYYANSLKGRFTGSRDNAKNTAYLQMNSLKPEDTAVYYCHAPLNDGSTPTHICSRAGSYGYWGQGTQVTVSS | 2 | – | – | – | – |
| AahI'A17 (VHH) VHH: QVQLQESGGGSVQDGGSLTLSCAASSSYVFNNLNMGWFRQAPGKECELVSTLFVNGITNYADSVKGRFTVSRDNAKNTVFLHMTNLSTEDTAVYYCAAPDVCSATRCGPACRGQGTQVTVSS | 4 | – | – | – | – |
| AahI'D19 (VHH) VHH: QVQLQESGGGLVQPGGSLRLSCAVTDFTFSFYWMYWVRQAPGKNLEWISSLHSDGYTYYPDSVKGRFTISRDTAKNMLYLQMNSLKPEDTAVYYCATAIRNMWGQAAPGSAGYWGQGTQVTVSS | 4 | – | – | – | – |
| AahI'C14 (VHH) VHH: QVQLQESGGGSVQAEGSLRLSCTVSGLTSSSNYVGWFRQAPGKEREGVATIGPYTRNTRYADSVNGRFTISLDNAKSTLYLQMNGLKPEDTAIYYCAAGKTTWIRALRSDDYKYWGQGTQVTVSS | 0 | – | – | – | – |
